In test [1] the target is T1, C-terminally truncated Mycobacterium smegmatis MmpL3 (ΔC Ms-MmpL3, aa 1–773) (M. smegmatis), A0QP27.
T1 chain: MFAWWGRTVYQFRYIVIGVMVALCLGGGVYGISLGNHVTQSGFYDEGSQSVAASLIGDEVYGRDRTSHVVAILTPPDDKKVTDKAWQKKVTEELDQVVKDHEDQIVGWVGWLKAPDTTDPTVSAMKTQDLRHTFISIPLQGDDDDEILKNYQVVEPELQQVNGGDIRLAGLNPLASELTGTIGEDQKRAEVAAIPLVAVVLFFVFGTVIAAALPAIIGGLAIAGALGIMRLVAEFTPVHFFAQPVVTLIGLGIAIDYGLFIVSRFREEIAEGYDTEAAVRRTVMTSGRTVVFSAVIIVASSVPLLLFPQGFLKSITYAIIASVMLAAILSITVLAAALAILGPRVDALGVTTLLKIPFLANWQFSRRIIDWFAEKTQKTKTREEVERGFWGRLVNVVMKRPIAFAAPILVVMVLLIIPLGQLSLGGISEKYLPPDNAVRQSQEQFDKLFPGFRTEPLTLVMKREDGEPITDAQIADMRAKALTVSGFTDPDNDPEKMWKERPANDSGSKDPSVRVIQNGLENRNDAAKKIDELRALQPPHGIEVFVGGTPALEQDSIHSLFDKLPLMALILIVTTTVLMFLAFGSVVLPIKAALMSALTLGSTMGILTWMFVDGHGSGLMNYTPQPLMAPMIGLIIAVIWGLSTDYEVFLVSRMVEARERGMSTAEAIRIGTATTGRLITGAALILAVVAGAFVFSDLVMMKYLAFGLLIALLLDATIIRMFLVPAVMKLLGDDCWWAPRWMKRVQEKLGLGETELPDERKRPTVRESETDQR
The test can be described thus: AUC; sedimentation velocity of the SEC peaks of protein in SMALPs; 0.1-0.5 mg/mL, 20 mM Tris HCl, 150 mM NaCl, pH 8.0, 20 °C; c(s) distribution; the mass includes lipid and polymer. The settings on record: remark: other sources report otherwise.

Test [2] has as its target T1, C-terminally truncated Mycobacterium …. The test can be described thus: native MS; LILBID-MS of the high sucrose percentage (HSP, 16-18% sucrose) fraction of POPC/MSP1E3D1 nanodiscs; 20 mM Tris HCl pH 8.0; negative mode; low and high laser energies. The settings on record: remark: other sources report otherwise.

B1: C-terminally truncated Mycobacterium smegmatis MmpL3 (ΔC Ms-MmpL3, aa 1–773), A0QP27 1-773 (domain or fragment)
chain: MFAWWGRTVYQFRYIVIGVMVALCLGGGVYGISLGNHVTQSGFYDEGSQSVAASLIGDEVYGRDRTSHVVAILTPPDDKKVTDKAWQKKVTEELDQVVKDHEDQIVGWVGWLKAPDTTDPTVSAMKTQDLRHTFISIPLQGDDDDEILKNYQVVEPELQQVNGGDIRLAGLNPLASELTGTIGEDQKRAEVAAIPLVAVVLFFVFGTVIAAALPAIIGGLAIAGALGIMRLVAEFTPVHFFAQPVVTLIGLGIAIDYGLFIVSRFREEIAEGYDTEAAVRRTVMTSGRTVVFSAVIIVASSVPLLLFPQGFLKSITYAIIASVMLAAILSITVLAAALAILGPRVDALGVTTLLKIPFLANWQFSRRIIDWFAEKTQKTKTREEVERGFWGRLVNVVMKRPIAFAAPILVVMVLLIIPLGQLSLGGISEKYLPPDNAVRQSQEQFDKLFPGFRTEPLTLVMKREDGEPITDAQIADMRAKALTVSGFTDPDNDPEKMWKERPANDSGSKDPSVRVIQNGLENRNDAAKKIDELRALQPPHGIEVFVGGTPALEQDSIHSLFDKLPLMALILIVTTTVLMFLAFGSVVLPIKAALMSALTLGSTMGILTWMFVDGHGSGLMNYTPQPLMAPMIGLIIAVIWGLSTDYEVFLVSRMVEARERGMSTAEAIRIGTATTGRLITGAALILAVVAGAFVFSDLVMMKYLAFGLLIALLLDATIIRMFLVPAVMKLLGDDCWWAPRWMKRVQEKLGLGETELPDERKRPTVRESETDQR
B1: the stoichiometry N in test [1] and in test [2] was 2 in each case.
